In patent publication US20110300156A1 (Genmab, published 2011):

T1: murine tissue factor (TF) on transfected HEK293F cells (murine, UniProt P20352 29-294)
T1 construct: whole, on cells; also called murine TF; TFmm
T1 sequence (looked up): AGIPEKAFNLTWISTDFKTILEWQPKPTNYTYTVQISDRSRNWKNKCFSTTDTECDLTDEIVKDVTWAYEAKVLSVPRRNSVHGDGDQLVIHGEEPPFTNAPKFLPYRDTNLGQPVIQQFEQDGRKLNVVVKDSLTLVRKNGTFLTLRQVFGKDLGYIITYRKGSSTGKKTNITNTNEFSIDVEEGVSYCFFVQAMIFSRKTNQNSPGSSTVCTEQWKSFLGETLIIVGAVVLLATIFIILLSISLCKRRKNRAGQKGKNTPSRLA


Legend:
[1] = target: T2, human tissue factor (TF), membrane-bound on cells (human, UniProt P13726 33-295); assay: cell-based or functional assay
[2] = target: T3, TFECDHis (extracellular domain of tissue factor, amino acid 1-251, with C-terminal His tag) (human, UniProt P13726 33-251); assay: ELISA, coated TFECDHis, mean of 3
T3 construct: range 1-251; The stated range 1-251 starts at residue 1 of NP-001984; also called extracellular domain of TF
Description: The specificity of the obtained anti-TF HuMabs was evaluated by ELISA. ELISA plates (Microlon; Greiner Bio-One) were coated overnight at +4° C. with 0.5 μg/mL of TFECDHis in PBS, pH 7.4. Coated ELISA plates were emptied and blocked for one hour at room temperature with 2% (v/v) chicken serum (Gibco, Paisley, Scotland) in PBS and washed with PBS containing 0.05% Tween 20 (PBST). Subsequently, HuMabs, serially diluted in PBSTC (PBS supplemented with 2% (v/v) chicken serum and 0.05% (v/v) Tween-20), were incubated for 1 hr at RT under shaking conditions (300 rpm). Bound HuMabs were detected using HRP-conjugated goat-anti-human IgG antibodies (Jackson ImmunoResearch) diluted 1:5,000 in PBSTC, which were incubated for 1 hr at RT under shaking conditions (300 rpm). […] HuMab-KLH (a human monoclonal antibody against KLH (keyhole limpet haemocyanin)), was used as a negative control. Mouse anti-human TF (ERL) was used as positive control (HRP labeled anti-mouse IgG as conjugate). Binding curves were analyzed using non-linear regression (sigmoidal dose-response with variable slope) using GraphPad Prism V4.03 software.

[3] = target: T2, human tissue factor (TF), …; assay: FACS, MDA-MB-231 cells, 30 µg/mL
Description: (§1) Cells were resuspended in PBS (2×10⁶ cells/ml), put in 96-well V-bottom plates (50 μl/well). 50 μl of serially diluted HuMab in FACS buffer (PBS supplemented with 0.1% BSA and 0.02% Na-azide) was added to the cells and incubated for 30 minutes on ice. After washing three times with FACS buffer, 50 μl of phycoerythrin (PE)-conjugated goat anti-human IgGFc (Jackson ImmunoResearch), diluted 1:100 in FACS buffer, was added. After 30 minutes on ice (in the dark), cells were washed three times, and specific binding of the HuMabs was detected by flow cytometry on a FACSCalibur (BD Biosciences). HuMab-KLH was used as a negative control. Mouse anti-TF followed by PE-conjugated anti-mouse IgGFc was used as positive control. Binding curves were analyzed using non-linear regression (sigmoidal dose-response with variable slope) using GraphPad Prism V4.03 software (GraphPad Software, San Diego, Calif., USA).

TF (Innovin) [4] = target: T4, TF (Innovin) (UniProt P13726 33-295, limits assumed); assay: cell-based or functional assay
[5] = target: T2, human tissue factor (TF), …; assay: FACS, A431 cells
Description: as §1

[6] = target: T1, murine tissue factor (TF) on …; assay: FACS on transfected HEK293F cells, 30 µg/mL antibody [panel A]
[7] = target: T2, human tissue factor (TF), …; assay: FACS, A431 cells, 30 µg/mL
Description: as §1

[8] = target: T2, human tissue factor (TF), …; assay: FACS, MDA-MB-231 cells
Description: as §1

[9] = target: T2, human tissue factor (TF), …; assay: cell-based or functional assay; remark: listed apart in the source
[10] = target: T3, TFECDHis (extracellular domain of …); assay: SPR BIAcore 3000, HuMab immobilized, TFECDHis analyte
Description: (§2) Antibody binding to TF was analyzed by surface plasmon resonance in a BIAcore 3000 (GE Healthcare). TFECDHis was used for the analysis. HuMab antibodies (500 resonance units) were immobilized on the CM-5 sensor chip according to the procedure recommended by the manufacturer. Briefly, after surface activation by EDC and NHS HuMab antibody was injected over the activated CM-5 surface in 10 mM sodium-acetate, pH ranging from 4.0 to 5.5 at 5 μl/min. followed by 1 M Ethanolamine for deactivation. Concentration series of TFECDHis in HBS-EP buffer were injected over the immobilized antibodies at a flow rate of 30 μl/min for 180 sec. Regeneration of the HuMab surface was performed by injection of 10 mM Glycine-HCl pH 2.0 or 10 mM sodium acetate pH 3.0. Kinetic analysis was performed using double reference subtraction and model 1:1 (langmuir) binding analysis.

[11] = target: T2, human tissue factor (TF), …; assay: FACS, Bx-PC3 cells
Description: as §1

[12] = target: T2, human tissue factor (TF), …; assay: FACS, Bx-PC3 cells, 30 µg/mL
Description: as §1

[13] = target: T2, human tissue factor (TF), …; assay: FACS, TF transfected CHO cells (S1015-TF)
Description: as §1

[14] = target: T3, TFECDHis (extracellular domain of …); assay: competition ELISA, inhibition of FVIIa (100 nM) binding to coated TFECDHis
Description: ELISA plates were coated overnight with TFECDHis (0.5 μg/mL, 100 μL per well). Plates were emptied, blocked with PBS containing 2% (v/v) chicken serum (1 hour, RT), and emptied again. […] Plates were washed and incubated with swine-anti-rabbit IgG-HRP antibody (1:2,500; DAKO). After washing, the immune complexes were visualized using ABTS as a substrate.

[15] = target: T2, human tissue factor (TF), …; assay: cell-based or functional assay; remark: listed apart in the source
[16] = target: T2, human tissue factor (TF), …; assay: FACS, TF transfected CHO cells (S1015-TF), 7.5 µg/mL
Description: as §1

TF (Innovin) [17] = target: T4, TF (Innovin); assay: cell-based or functional assay; remark: listed apart in the source
[18] = target: T2, human tissue factor (TF), …; assay: FACS on MDA-MB-231 cells (~900.000 TF molecules/cell) [panel MDA-MB-231 cells]
Description: as §1
Binding of anti-TF HuMabs to membrane-bound TF on cell lines expressing different levels of TF was determined by FACS analysis, essentially as described supra. Mouse anti-TF antibody followed by PE-conjugated anti-mouse IgGFc was used as a positive control. Fluorescence was measured on a FACSCantoII. Binding curves were analyzed essentially as described supra, using GraphPad Prism 5 software. The amount of TF molecules on cell lines was determined by Qifi kit (Dako, Glostrup, Denmark), according to the manufacturer's instructions.

[19] = target: T3, TFECDHis (extracellular domain of …); assay: SPR avidity format: TFECDHis immobilized, bivalent HuMab as analyte (printed as avidity nM)
Description: as §2
TF (TFECDHis) binding to TF-specific HuMabs was determined essentially as described above, with TFECDHis being immobilized on the CM-5 sensor chip (300 resonance units), and concentration series of Humab antibodies used for kinetic analysis. Kinetic analysis was performed using double reference subtraction and model 1:1 (langmuir) binding analysis.

[20] = target: T1, murine tissue factor (TF) on …; assay: FACS on transfected HEK293F cells, 30 µg/mL antibody [panel K]
[21] = target: T1, murine tissue factor (TF) on …; assay: FACS on transfected HEK293F cells, 30 µg/mL antibody [panel L]

| % max inhibition of FVIIa induced ERK phosphorylation (A431) [1] | IC50, inhibition of FVIIa induced ERK phosphorylation (A431) [1] | EC50 [2] | Max MFI [3] | % max inhibition of FXa generation (TF (Innovin) [4]) | IC50, inhibition of FXa generation (TF (Innovin) [4]) | EC50 [5] | Max MFI [7] | EC50 [8] | IC50, inhibition of FVIIa induced IL-8 release (MDA-MB-231) [9] | max inhibition of FVIIa induced IL-8 release (MDA-MB-231) [9] | EC50 [11] | Max MFI [12] | EC50 [13] | IC50 [14] | max inhibition [14] | EC50 of ADCC, Bx-PC3 cells [15] | EC50 of ADCC, MDA-MB-231 cells [15] | Max MFI [16] | IC50, inhibition of blood coagulation (TF induced clotting time) (TF (Innovin) [17]) | Binder | further results |
| --- | --- | --- | --- | --- | --- | --- | --- | --- | --- | --- | --- | --- | --- | --- | --- | --- | --- | --- | --- | --- | --- |
| 63% | 7.99 nM | 0.46 nM | 1800 | 21% | 0.07 nM | 6.94 nM | 2530 | 3.2 nM | 23.7 nM | 76.2% | 4.98 nM | 1110 | 2.06 nM | 1.9 nM | 89% | 0.17 nM | 0.29 nM | 4250 | 7.3 nM | anti-TF HuMab 003 (antibody, V domains shown, Human monoclonal antibody from HuMab mice; also called HuMab-TF-003) VH: QVQLVQSGAEVKKPGSSVKVSCKAPRGTFSYYTISWVRQAPGQGLEWMGRIIPILGVANYAQKFQGRVTITADKSTSTAYMELSSLRSEDTAVYYCAREGDRRYFDYWGQGTLVTVSS VL: AIQLTQSPSSLSASVGDRVTITCRASQDISSALAWYQQKPGKAPKLLIYDASILESGVPSRFSGSGSGTDFTLTISSLQPEDFATYYCQQFNSYPLTFGGGTKVEIK | binding result [6]: binds; Kd [10]: 4.51 nM |
| 64% | 1.89 nM | – | 1960 | 14% | 0.43 nM | 1.4 nM | 2760 | 0.99 nM | 9.3 nM | 59% | 1.38 nM | 1150 | 0.96 nM | 0.8 nM | 85% | 0.02 nM | 0.15 nM | 5230 | – | anti-TF HuMab 098 (antibody, V domains shown, Human monoclonal antibody from HuMab mice; also called HuMab-TF-098; HuMab-TF-98) VH: QVQLVQSGAEVRKPGSSVKVSCKASGGSFNNYPIFWVRQAPGQGFEWMGRIIPILGITAYAQKFQGRVTITADKSTSTAYMELNSLRSEDTAVYYCAGGDDLDAFDIWGQGTMVSVSS VL: DIQMTQSPSSLSASVGDRVTITCRASQGISSWLAWYQQKPEKAPKSLIYAASSLQSGVPSRFSGSGSGTDFTLTISSLQPEDFATYYCQQYNSYPYTFGQGTKLEIK | EC50 (read off the curve) [18]: ~0.05 µg/mL; Kd [19]: 4.85 nM; binding result [20]: no binding (tested: 30 µg/mL); EC50 of ADCC, A431 cells [15]: 0.07 nM |
| 57% | 1.05 nM | 0.28 nM | 2070 | – | – | 3.16 nM | 2930 | 0.85 nM | 22.7 nM | 74.9% | 2.25 nM | 1220 | 1.77 nM | – | – | 0.09 nM | 0.1 nM | 5860 | 0.7 nM | anti-TF HuMab 101 (antibody, V domains shown, Human monoclonal antibody from HuMab mice) VH: EVQLLESGGGLVQPGGSLRLSCAASGFTFSNYAMSWVRQAPAKGLDWVSGISGSGVTTYYADSVKGRFTISRDNSKDTLYLQMNSLRAEDTAVYFCAKTPWGYYFDYWGQGILVAVSS VL: DIQMTQSPSSLSASVGDRVTITCRASQGISSWLAWYQQKPEKAPKSLIYAASSLQSGVPSRFSGSGSGTDFTLTISSLQPEDFATYYCQQYNSYPLYTFGQGTKLEIK | binding result [21]: no binding (tested: 30 µg/mL); EC50 of ADCC, A431 cells [15]: 0.01 nM |
